This is an account of results in PMC5897525.

The target in the assay is rFel d 1.mFc. Description: SPR; 25°C; dimeric. (In general: SPR reads the build-up and loss of mass on a sensor chip optically.)

The term Kd denotes the constant that tells how readily two partners part at equilibrium. The low end stands for tighter binding, the high end for weaker binding. As usually defined, the koff is the first-order rate constant of dissociation. Lower therefore signals a long-lived complex.

Substance REGN1908 yielded a Kd of 31.6 pM and a koff of 7.25e-05 s⁻¹.
